B1: Mab 2F11 (antibody, V domains shown)
VH: QVQLKESGPGLVAPSQSLSITCTVSGFSLTTYDISWIRQSPGKGLEWLGVIWTDGGTNYNSPFMSRLSIRKDNSKSQVFLKMNRLQTDDTAIYYCVRDQRLYFDVWGAGTTVTVSS
VL: NIVMTQSPKSMSMSVGERVTLNCKASEDVNTYVSWYQQQPEQSPKLLIYGASNRYTGVPDRFTGGGSTTDFTLTISSVQAEDLADYFCGQSFSYPTFGTGTKLEIK
notes: Murine monoclonal antibody from hybridoma; also called muMab 2F11
B2: Mab 2E10 (antibody, V domains shown)
VH: QVQLKESGPGLVAPSKSLSITCTVSGSSLDSFDISWIRQSPGKGLEWLGVIWTGGGTNYNSGFMSRLRITKDNSKSQVLLKMNSLQSDDTAIYYCVRDPRLYFDVWGAGTTVTVSS
VL: B1 VL with N22S, N30V, Q39K, E41D, G65S, T68A, F87Y, S91T
notes: Murine monoclonal antibody
B3: Mab 1G10 (antibody, V domains shown)
VH: B1 VH with Q1R, T31S, T53S, D54G, S68R, R70S, N73D, K75R, M82V, Q99L
VL: KIVMTQSPKSMSVSVGERVSLSCKASEDVGTYVSWYQQKPEQSPKLLIYGSSNRYTGVPDRFTGSGSATDFTLTISSVQAEDLADYSCGQSFTYPTFGTGTKLEIK
notes: Murine monoclonal antibody
B4: Mab 2H7 (antibody, V domains shown)
VH: B2 VH with S40P, T70S, L79F, N83S
VL: B1 VL with N22S, N30V, Q39K, G65S, T68A, V78I, F87Y, S91T
notes: Murine monoclonal antibody

Where a chain is given by its changes, count along the chain named.

One experiment concerns the target CSF-1R on cynomolgous monocytes (cynomolgous). Description: cell-based or functional assay.
For B1, the “% inhibition (of survival) = (100% - % survival), cynomolgous monocytes, 5 µg/ml antibody” value (from here on “% inhibition (of survival) =”) came out at 96% and the “% survival of cynomolgous monocytes at 5 µg/ml antibody (150 ng/ml huCSF-1, CellTiterGlo)” value (“% survival of cynomolgous monocytes” for short) is 4%.

Consider B2, for which the “% inhibition (of survival) =” value worked out at 83% and the “% survival of cynomolgous monocytes” value is 17%.

As for B3, the “% inhibition (of survival) =” value worked out at 98% and the “% survival of cynomolgous monocytes” value was found to be 2%.

In the case of B4, the “% inhibition (of survival) =” value is 92% and the “% survival of cynomolgous monocytes” value came out at 8%.

In another experiment the target is T1, human CSF-1R fragment D1-D3 (human, UniProt P07333 20-311).
T1 construct: Subcloned into pCMV-presS-HisAvitag expression vector
T1 sequence (P07333 20-311 limits assumed): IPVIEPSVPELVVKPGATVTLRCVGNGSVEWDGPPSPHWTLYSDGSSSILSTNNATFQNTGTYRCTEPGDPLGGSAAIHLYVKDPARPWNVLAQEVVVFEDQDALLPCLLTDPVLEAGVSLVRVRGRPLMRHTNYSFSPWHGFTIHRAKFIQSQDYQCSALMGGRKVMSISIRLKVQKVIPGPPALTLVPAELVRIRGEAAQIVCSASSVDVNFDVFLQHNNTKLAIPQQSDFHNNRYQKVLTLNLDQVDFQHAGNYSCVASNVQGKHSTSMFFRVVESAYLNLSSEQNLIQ
The experiment can be described thus: SPR Biacore T100, 37°C; antibody captured, D1-D3 injected, single cycle kinetics. As for the experimental part: Antibodies against CSF-1R were captured via amine coupled capture molecules. Using the single cycle kinetics five increasing concentrations of human CSF-1R fragment D1-D3 (SEQ ID NO: 66) were injected. Human CSF-1R fragment D1-D3 was subcloned into pCMV-presS-HisAvitag expression vector.
Single Cycle Kinetics was measured at a flow rate of 30 μL/min by five consecutive injections of the analyte with concentrations, c=7.8, 31.25, 125 500 and 2000 nM, without regeneration. Each injection was 30 seconds long and followed by a dissociation phase of 120 Seconds for the first four injections, and finally 1200 seconds for the highest concentration (=last injection).
Kinetic parameters were calculated by using the usual double referencing (control reference: binding of analyte to capture molecule; Flow Cell: subdomain CSF-1R concentration “0” as Blank) and calculation with model ‘titration kinetics 1:1 binding with draft’.
With B1, the binding result is given as “no binding (tested: up to 2000 nM D1-D3)”.

For the molecule B2, the binding result is on record as “no binding (tested: up to 2000 nM D1-D3)”.

B3: the binding result is given as “no binding (tested: up to 2000 nM D1-D3)”.

Source of the values: patent publication US20140079706A1 (published 2014).
